In the Human Domainome abundance scans (Beltran et al. 2025):
± gives the uncertainty stated by the source.

B1: Storkhead-box protein 2, residues 64 to 141; numbered along this chain, Q9P2F5 (parent)
chain: SPISQSQFIPLGEILCLAISAMNSARKPVTQEALMEHLTTCFPGVPTPSQEILRHTLNTLVRERKIYPTPDGYFIVTP

Variants of: B1
Test: abundance fitness (aPCA) (normalised: wild type 0, dead -1); higher = more abundant; growth selection in yeast, the domain comes from the species named
Conditions: Homo sapiens

Variant | abundance fitness
SPISQSQFIPLGEILCLAISAMNSARKPVTQEALMEHLTTCFPGVPTPSQEILRHTLNTLVRMRKIYPTPDGYFIVTP [E63M] | -0.051 ± 0.077
SPISQSQFIPLGEILCLAISAMNSARKPVTQEALMEHLTTCFPGVPTPSQEILRHTLNTLVRNRKIYPTPDGYFIVTP [E63N] | -0.028 ± 0.088
SPISQSQFIPLGEILCLAISAMNSARKPVTQEALMEHLTTCFPGVPTPSQEILRHTLNTLVRPRKIYPTPDGYFIVTP [E63P] | -1.2 ± 0.11
SPISQSQFIPLGEILCLAISAMNSARKPVTQEALMEHLTTCFPGVPTPSQEILRHTLNTLVRRRKIYPTPDGYFIVTP [E63R] | -0.015 ± 0.029
SPISQSQFIPLGEILCLAISAMNSARKPVTQEALMEHLTTCFPGVPTPSQEILRHTLNTLVRSRKIYPTPDGYFIVTP [E63S] | -0.018 ± 0.033
SPISQSQFIPLGEILCLAISAMNSARKPVTQEALMEHLTTCFPGVPTPSQEILRHTLNTLVRTRKIYPTPDGYFIVTP [E63T] | -0.049 ± 0.053
SPISQSQFIPLGEILCLAISAMNSARKPVTQEALMEHLTTCFPGVPTPSQEILRHTLNTLVRVRKIYPTPDGYFIVTP [E63V] | -0.049 ± 0.047
SPISQSQFIPLGEILCLAISAMNSARKPVTQEALMEHLTTCFPGVPTPSQEILRHTLNTLVRWRKIYPTPDGYFIVTP [E63W] | -0.075 ± 0.049
SPISQSQFIPLGEILCLAISAMNSARKPVTQEALMEHLTTCFPGVPTPSQEILRHTLNTLVRYRKIYPTPDGYFIVTP [E63Y] | -0.033 ± 0.13
SPISQSQFIPLGEILCLAISAMNSARKPVTQEALMEHLTTCFPGVPTPSQEILRHTLNTLVREAKIYPTPDGYFIVTP [R64A] | -0.029 ± 0.041
SPISQSQFIPLGEILCLAISAMNSARKPVTQEALMEHLTTCFPGVPTPSQEILRHTLNTLVRECKIYPTPDGYFIVTP [R64C] | -0.128 ± 0.068
SPISQSQFIPLGEILCLAISAMNSARKPVTQEALMEHLTTCFPGVPTPSQEILRHTLNTLVREDKIYPTPDGYFIVTP [R64D] | -0.029 ± 0.09
SPISQSQFIPLGEILCLAISAMNSARKPVTQEALMEHLTTCFPGVPTPSQEILRHTLNTLVREEKIYPTPDGYFIVTP [R64E] | 0.112 ± 0.075
SPISQSQFIPLGEILCLAISAMNSARKPVTQEALMEHLTTCFPGVPTPSQEILRHTLNTLVREFKIYPTPDGYFIVTP [R64F] | -0.286 ± 0.082
SPISQSQFIPLGEILCLAISAMNSARKPVTQEALMEHLTTCFPGVPTPSQEILRHTLNTLVREGKIYPTPDGYFIVTP [R64G] | 0.031 ± 0.034
SPISQSQFIPLGEILCLAISAMNSARKPVTQEALMEHLTTCFPGVPTPSQEILRHTLNTLVREHKIYPTPDGYFIVTP [R64H] | 0.039 ± 0.12
SPISQSQFIPLGEILCLAISAMNSARKPVTQEALMEHLTTCFPGVPTPSQEILRHTLNTLVREIKIYPTPDGYFIVTP [R64I] | -0.619 ± 0.14
SPISQSQFIPLGEILCLAISAMNSARKPVTQEALMEHLTTCFPGVPTPSQEILRHTLNTLVREKKIYPTPDGYFIVTP [R64K] | 0.061 ± 0.11

Variant | abundance fitness
SPISQSQFIPLGEILCLAISAMNSARKPVTQEALMEHLTTCFPGVPTPSQEILRHTLNTLVRELKIYPTPDGYFIVTP [R64L] | -0.124 ± 0.044
SPISQSQFIPLGEILCLAISAMNSARKPVTQEALMEHLTTCFPGVPTPSQEILRHTLNTLVREMKIYPTPDGYFIVTP [R64M] | -0.138 ± 0.079
SPISQSQFIPLGEILCLAISAMNSARKPVTQEALMEHLTTCFPGVPTPSQEILRHTLNTLVRENKIYPTPDGYFIVTP [R64N] | -0.043 ± 0.13
SPISQSQFIPLGEILCLAISAMNSARKPVTQEALMEHLTTCFPGVPTPSQEILRHTLNTLVREPKIYPTPDGYFIVTP [R64P] | -1.09 ± 0.14
SPISQSQFIPLGEILCLAISAMNSARKPVTQEALMEHLTTCFPGVPTPSQEILRHTLNTLVREQKIYPTPDGYFIVTP [R64Q] | -0.043 ± 0.099
SPISQSQFIPLGEILCLAISAMNSARKPVTQEALMEHLTTCFPGVPTPSQEILRHTLNTLVRESKIYPTPDGYFIVTP [R64S] | -0.021 ± 0.045
SPISQSQFIPLGEILCLAISAMNSARKPVTQEALMEHLTTCFPGVPTPSQEILRHTLNTLVREVKIYPTPDGYFIVTP [R64V] | -0.22 ± 0.049
SPISQSQFIPLGEILCLAISAMNSARKPVTQEALMEHLTTCFPGVPTPSQEILRHTLNTLVREWKIYPTPDGYFIVTP [R64W] | -0.211 ± 0.041
SPISQSQFIPLGEILCLAISAMNSARKPVTQEALMEHLTTCFPGVPTPSQEILRHTLNTLVREYKIYPTPDGYFIVTP [R64Y] | -0.174 ± 0.17
SPISQSQFIPLGEILCLAISAMNSARKPVTQEALMEHLTTCFPGVPTPSQEILRHTLNTLVRERAIYPTPDGYFIVTP [K65A] | -0.134 ± 0.054
SPISQSQFIPLGEILCLAISAMNSARKPVTQEALMEHLTTCFPGVPTPSQEILRHTLNTLVRERCIYPTPDGYFIVTP [K65C] | -0.208 ± 0.072
SPISQSQFIPLGEILCLAISAMNSARKPVTQEALMEHLTTCFPGVPTPSQEILRHTLNTLVRERDIYPTPDGYFIVTP [K65D] | -0.443 ± 0.089
SPISQSQFIPLGEILCLAISAMNSARKPVTQEALMEHLTTCFPGVPTPSQEILRHTLNTLVREREIYPTPDGYFIVTP [K65E] | -0.167 ± 0.079
SPISQSQFIPLGEILCLAISAMNSARKPVTQEALMEHLTTCFPGVPTPSQEILRHTLNTLVRERFIYPTPDGYFIVTP [K65F] | -0.084 ± 0.093
SPISQSQFIPLGEILCLAISAMNSARKPVTQEALMEHLTTCFPGVPTPSQEILRHTLNTLVRERGIYPTPDGYFIVTP [K65G] | -0.541 ± 0.037
SPISQSQFIPLGEILCLAISAMNSARKPVTQEALMEHLTTCFPGVPTPSQEILRHTLNTLVRERHIYPTPDGYFIVTP [K65H] | 0.013 ± 0.084
SPISQSQFIPLGEILCLAISAMNSARKPVTQEALMEHLTTCFPGVPTPSQEILRHTLNTLVRERIIYPTPDGYFIVTP [K65I] | -0.21 ± 0.21
